According to patent publication US20060084792A1 (UNITED STATES OF AMERICA AS REPRESENTED BY THE …, published 2006):

B1: position 153 circular permutant chaperonin protein (Sulfolobus shibatae TF55 beta subunit, termini relocated after residue 153) (other)
chain: MAINDTDVLRKVALTSLGSKAVAGAREYLADLVVKAVAQVAELRGDKWYVDLDNVQIVKKHGGSINDTQLVYGIVVDKEVVHPGMPKRIENAKIALLDASLEVEKPELDAEIRINDPTQMHKFLEEEENILKEKVDKIAATGANVVIAQKGIDEVAQHYLAKKGILAVRRAKKSDLEKLARATGGRVISNIDELTSQDLGYAALVEERKVGEDKIVFVEGAKNPKSVSILIRGGLERVVDETERALRDALGTVADVIRDGRAVAGGGAVEIEIAKRLRKYAPQVGGKEQLAIEAYANAIEGLIMILAENAGLDPIDKLMQLRSLHENETNKWYGLNLFTGNPEDMWKLGVIEPALVKMNAIKAATEAVTLVLRIDDIVGGSGGTIPVIILKEGSSRTYGKEALRANIAAVKAIEEALKSTYGPRGMDKILVDSLGDITITNDGATILDKMDLQHPTGKLLVQIAKGQDEETADGTKTAVILAGELAKKAEDLLYKEIHPTIIVSGYKKAEEIALKTIQDIAQPVS
notes: Entry is the single subunit; Original termini are joined by the linker GGSGGT; also called circular permutant at position 153; permutant 153
B2: position 316 circular permutant chaperonin protein (Sulfolobus shibatae TF55 beta subunit, termini relocated after residue 316) (other)
chain: MAILAVRRAKKSDLEKLARATGGRVISNIDELTSQDLGYAALVEERKVGEDKIVFVEGAKNPKSVSILIRGGLERVVDETERALRDALGTVADVIRDGRAVAGGGAVEIEIAKRLRKYAPQVGGKEQLAIEAYANAIEGLIMILAENAGLDPIDKLMQLRSLHENETNKWYGLNLFTGNPEDMWKLGVIEPALVKMNAIKAATEAVTLVLRIDDIVGGSGGTIPVIILKEGSSRTYGKEALRANIAAVKAIEEALKSTYGPRGMDKILVDSLGDITITNDGATILDKMDLQHPTGKLLVQIAKGQDEETADGTKTAVILAGELAKKAEDLLYKEIHPTIIVSGYKKAEEIALKTIQDIAQPVSINDTDVLRKVALTSLGSKAVAGAREYLADLVVKAVAQVAELRGDKWYVDLDNVQIVKKHGGSINDTQLVYGIVVDKEVVHPGMPKRIENAKIALLDASLEVEKPELDAEIRINDPTQMHKFLEEEENILKEKVDKIAATGANVVIAQKGIDEVAQHYLAKKG
notes: Entry is the single subunit; Original termini are joined by the linker GGSGGT; Assembles into double rings with two rings of nine subunits each; also called circular permutant at position 316; permutant 316
B3: position 499 circular permutant chaperonin protein (Sulfolobus shibatae TF55 beta subunit, termini relocated after residue 499) (other)
chain: MALGVIEPALVKMNAIKAATEAVTLVLRIDDIVGGSGGTIPVIILKEGSSRTYGKEALRANIAAVKAIEEALKSTYGPRGMDKILVDSLGDITITNDGATILDKMDLQHPTGKLLVQIAKGQDEETADGTKTAVILAGELAKKAEDLLYKEIHPTIIVSGYKKAEEIALKTIQDIAQPVSINDTDVLRKVALTSLGSKAVAGAREYLADLVVKAVAQVAELRGDKWYVDLDNVQIVKKHGGSINDTQLVYGIVVDKEVVHPGMPKRIENAKIALLDASLEVEKPELDAEIRINDPTQMHKFLEEEENILKEKVDKIAATGANVVIAQKGIDEVAQHYLAKKGILAVRRAKKSDLEKLARATGGRVISNIDELTSQDLGYAALVEERKVGEDKIVFVEGAKNPKSVSILIRGGLERVVDETERALRDALGTVADVIRDGRAVAGGGAVEIEIAKRLRKYAPQVGGKEQLAIEAYANAIEGLIMILAENAGLDPIDKLMQLRSLHENETNKWYGLNLFTGNPEDMWK
notes: Entry is the single subunit; Original termini are joined by the linker GGSGGT; Assembles into double rings with two rings of nine subunits each; also called circular permutant at position 499; permutant 499
B4: position 480 circular permutant chaperonin protein (Sulfolobus shibatae TF55 beta subunit, termini relocated after residue 480) (other)
chain: MANKWYGLNLFTGNPEDMWKLGVIEPALVKMNAIKAATEAVTLVLRIDDIVGGSGGTIPVIILKEGSSRTYGKEALRANIAAVKAIEEALKSTYGPRGMDKILVDSLGDITITNDGATILDKMDLQHPTGKLLVQIAKGQDEETADGTKTAVILAGELAKKAEDLLYKEIHPTIIVSGYKKAEEIALKTIQDIAQPVSINDTDVLRKVALTSLGSKAVAGAREYLADLVVKAVAQVAELRGDKWYVDLDNVQIVKKHGGSINDTQLVYGIVVDKEVVHPGMPKRIENAKIALLDASLEVEKPELDAEIRINDPTQMHKFLEEEENILKEKVDKIAATGANVVIAQKGIDEVAQHYLAKKGILAVRRAKKSDLEKLARATGGRVISNIDELTSQDLGYAALVEERKVGEDKIVFVEGAKNPKSVSILIRGGLERVVDETERALRDALGTVADVIRDGRAVAGGGAVEIEIAKRLRKYAPQVGGKEQLAIEAYANAIEGLIMILAENAGLDPIDKLMQLRSLHENET
notes: Entry is the single subunit; Original termini are joined by the linker GGSGGT; Assembles into double rings with two rings of nine subunits each; also called circular permutant at position 480; permutant 480
B5: position 267 circular permutant chaperonin protein (Sulfolobus shibatae TF55 beta subunit, termini relocated after residue 267) (other)
chain: MADPTQMHKFLEEEENILKEKVDKIAATGANVVIAQKGIDEVAQHYLAKKGILAVRRAKKSDLEKLARATGGRVISNIDELTSQDLGYAALVEERKVGEDKIVFVEGAKNPKSVSILIRGGLERVVDETERALRDALGTVADVIRDGRAVAGGGAVEIEIAKRLRKYAPQVGGKEQLAIEAYANAIEGLIMILAENAGLDPIDKLMQLRSLHENETNKWYGLNLFTGNPEDMWKLGVIEPALVKMNAIKAATEAVTLVLRIDDIVGGSGGTIPVIILKEGSSRTYGKEALRANIAAVKAIEEALKSTYGPRGMDKILVDSLGDITITNDGATILDKMDLQHPTGKLLVQIAKGQDEETADGTKTAVILAGELAKKAEDLLYKEIHPTIIVSGYKKAEEIALKTIQDIAQPVSINDTDVLRKVALTSLGSKAVAGAREYLADLVVKAVAQVAELRGDKWYVDLDNVQIVKKHGGSINDTQLVYGIVVDKEVVHPGMPKRIENAKIALLDASLEVEKPELDAEIRIN
notes: Entry is the single subunit; Original termini are joined by the linker GGSGGT; Assembles into double rings with two rings of nine subunits each

Tests used:
[1] = biological target: the molecule itself; experiment: TEM, negative stain, after adding 1 mM ATP and 25 mM Mg2+; self-assembly of subunits
Method: (§1) Samples were prepared for the electron microscope by drop casting on carbon-coated formvar substrates (Ladd) and stained with 1% uranyl acetate. Samples were visualized using a Leo 912AB electron microscope in bright field TEM mode at 65 kV with a tungsten filament electron source.
(§2) Samples of the five different circular permutated chaperonin polypeptides (without the joined EYFP sequence) were analyzed at 1 hour or 24 hours after addition of 1 mM ATP and 25 mM Mg²⁺ (FIG. 19A-J). All five circular permuted chaperonins analyzed formed double rings having the same structure as wild-type chaperonin double rings, with two rings of nine subunits each (FIG. 19A-E). […] The circular permutated chaperonin polypeptides 480 and 499 formed predominantly filamentous structures. For permutants at positions 480 and 499, heating the sample to 70 degrees C. for 30 minutes immediately after addition of ATP and Mg²⁺ produced longer filaments.

[2] = biological target: the molecule itself; experiment: non-denaturing gradient PAGE (FIG. 18) and TEM; self-assembly of subunits
Method: (§3) The purity of the proteins was evaluated using denaturing polyacrylamide gel electrophoresis (GeneMate 8-16% Express Gels, ISC BioExpress). The ability of each of the circular permutations to form double rings was assessed by non-denaturing 4-40% gradient polyacrylamide gel (FIG. 18) as previously described (J K Trent, et al., 1991 Nature 354:490-493).
as §1, §2

[3] = biological target: the molecule itself; experiment: summary of native PAGE and TEM; self-assembly of subunits
Method: as §3, §1, §2

| Protein | binding result [2] | other results |
| --- | --- | --- |
| B1 | – | binding result [1]: binds |
| B2 | binds | – |
| B3 | binds | – |
| B4 | binds | – |
| B5 | – | binding result [3]: binds |
